In patent US20210017289A1 (AbbVie / Abbott, published 2021):

Experiments:
[1] = biological target: T1, 293s-huOX40-muCRDII+III; experiment: flow cytometry on 293s transfectants, Hu3738 added at 2 µg/mL, Cy5 donkey anti-human IgG
T1 construct: cell-surface chimera, named on the sheet by its cell line; also called human OX40 chimera with murine CRDII and CRDIII replacing human CRDII and CRDIII
T1 receptor chain: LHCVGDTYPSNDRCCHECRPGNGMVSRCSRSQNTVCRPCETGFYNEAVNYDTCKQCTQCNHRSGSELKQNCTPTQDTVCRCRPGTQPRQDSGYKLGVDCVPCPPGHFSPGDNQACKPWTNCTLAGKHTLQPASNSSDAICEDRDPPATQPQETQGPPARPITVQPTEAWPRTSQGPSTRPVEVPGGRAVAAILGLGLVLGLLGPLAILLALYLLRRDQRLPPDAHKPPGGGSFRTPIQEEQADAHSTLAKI
Protocol: After plating cells, 50 μL of Hu3738 or isotype control antibody at 2 μg/mL were added to corresponding wells in duplicate for each cell line and allowed to incubate on ice for 30 minutes. Following incubation, 200 μL of Dulbecco's Phosphate Buffered Saline (DPBS) was added into each well and plates were spun down at 1000 rpm for three minutes. Supernatants from each well were removed and 50 μL of Cy5-Donkey anti-Human IgG (Jackson ImmunoResearch) secondary antibody was added at a 1:250 dilution, which was then incubated for 30 minutes on ice in the dark. Following the incubation period, 200 μL of DPBS was added prior to spinning down the plate at 1000 rpm for three minutes. Supernatants were removed and each well was re-suspended with 100 μL of DPBS+1% Formaldehyde. Samples were analyzed on the dual laser FACSCalibur flow cytometer (Becton Dickinson).

[2] = biological target: T2, human OX40 expressed on cells (human, UniProt P43489 29-277); experiment: flow cytometry on Jurkat NF-κB reporter cells expressing human OX40
T2 construct: also called cell-surface human OX40; Jurkat-NF-κB-huOX40
T2 sequence: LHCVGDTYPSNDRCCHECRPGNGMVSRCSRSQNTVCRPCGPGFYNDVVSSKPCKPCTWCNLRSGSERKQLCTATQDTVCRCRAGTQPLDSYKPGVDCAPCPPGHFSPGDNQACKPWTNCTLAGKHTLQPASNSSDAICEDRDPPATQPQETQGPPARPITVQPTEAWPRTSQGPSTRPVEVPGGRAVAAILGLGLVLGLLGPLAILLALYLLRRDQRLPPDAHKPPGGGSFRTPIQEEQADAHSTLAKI
Protocol: A Jurkat NF-κB reporter cell line expressing human OX40 protein was cultured in DMEM containing 10% FBS and penicillin/streptomycin (pen/strep). For the binding assay, each cell line was resuspended at 5 million cells per mL. 50 μL (250,000 cells)/well were transferred to each well of a 500 μL polypropylene 96-well plate (Nunc). A 2× stock of test anti-OX40 antibody or isotype control mAb was prepared in a separate dilution plate at 666, 333, 111, 37.03, 12.34, 4.11, 0.457, 0.152, 0.0508, 0.0169, 0.00564 nM in culture media. Each antibody (50 μL/well) was transferred into respective wells of the assay plate. Cells were incubated with the test anti-OX40 antibody or isotype control antibodies for 30 minutes at 4° C. and washed twice with 250 μL/well of PBS by centrifuging at 800 rpm for 3 minutes. Bound antibody was detected with Cy5-Donkey anti-human IgG (H+L) (Jackson ImmunoResearch) diluted to 2 μg/mL (50 μL/well) in PBS for 30 minutes at 4° C. Cells were washed once with 250 μL/well of PBS, resuspended in PBS containing 1% Formaldehyde and analyzed on a dual laser FACSCalibur (Becton Dickinson).

[3] = biological target: T3, cynomolgus OX40 on activated cynomolgus monkey CD4+ T cells (cynomolgus monkey, UniProt P43489 29-277 (human entry)); experiment: flow cytometry on PHA and IL-2 activated cynomolgus monkey CD4+ T cells
T3 chain: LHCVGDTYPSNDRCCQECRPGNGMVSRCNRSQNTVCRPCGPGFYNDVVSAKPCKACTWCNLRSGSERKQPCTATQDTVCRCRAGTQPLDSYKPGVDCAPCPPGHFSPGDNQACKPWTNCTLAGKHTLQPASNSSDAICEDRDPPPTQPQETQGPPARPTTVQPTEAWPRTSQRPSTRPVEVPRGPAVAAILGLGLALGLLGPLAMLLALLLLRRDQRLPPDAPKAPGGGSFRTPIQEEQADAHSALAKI
Protocol: Cynomolgus monkey whole blood was purchased from Worldwide Primates. For isolation of PBMCs, whole blood was diluted in a 1:1 ratio with PBS without magnesium and calcium (GE Healthcare). Diluted blood (30 mL) was layered under 13 mL of 95% Ficoll-Paque Plus (GE Healthcare) prepared in PBS without magnesium and calcium (GE Healthcare) in 50-mL conical tubes. The tubes were spun at 1000 g for 25 minutes. The interphase was collected and washed twice in 1×PBS. Cells were resuspended to 2×10⁶ cells/mL in RPMI/10% FBS. Cells were incubated for […] with […] phytohemagglutinin (PHA) (Sigma) and 100 U/mL recombinant human interleukin-2 (IL-2) (Proleukin®, Prometheus) in 6-well plates. After 24 hours, cells were washed, counted and resuspended to 2×10⁶/mL. 100 μL of the cells were used per stain. Test anti-OX40 antibody was titrated in a 4-fold dilution series starting at 1 μg/mL. Cells were stained for 30 minutes and washed twice. A 1:250 dilution (4 μg/mL) of Goat anti-Human IgG Fc specific-PE (Jackson ImmunoResearch) in 100 μL PBS containing 1% BSA was added per well. Cells were stained for an additional 30 minutes and washed twice, transferred to tubes and acquired using the BD LSR Fortessa flow cytometer, and analyzed using FACSDiva analysis software version 8.0.1.

- binding result [1]: no binding (tested: 2 µg/mL)
- EC50 [2]: 0.075 µg/mL
- EC50 [3]: 24 pM
B1: Hu3738 (antibody, V domains shown)
VH: EVQLVESGGGLVQPGGSLRLSCAASGFTFSRYGMSWVRQAPGKGLELVATINSNGGRTYYPDSVKGRFTISRDNAKNSLYLQMNSLRAEDTAVYYCAREGITTAYAMDYWGQGTTVTVSS
VL: DIVMTQSPDSLAVSLGERATINCKASQSVDYDGDSYMHWYQQKPGQPPKLLIYAASILESGVPDRFSGSGSGTDFTLTISSLQAEDVAVYYCQQSNEDPRTFGGGTKVEIKR
notes: Humanized antibody; also called exemplary anti-OX40 antibody Hu3738; Hu3738 VH.1b / Hu3738 VL.1
